Assay [1] concerns the target cyno CD21 protein (cynomolgus monkey). In words: SPR (Biacore). A general note: Surface plasmon resonance follows binding to a sensor surface in real time, without labels.
In assay [2] the target is T1, human CD21 on Raji B cells or primary B cells (human, UniProt P20023 21-1033).
T1 construct: whole, on cells; also called cell-surface human CD21; Raji cells
T1 sequence (looked up): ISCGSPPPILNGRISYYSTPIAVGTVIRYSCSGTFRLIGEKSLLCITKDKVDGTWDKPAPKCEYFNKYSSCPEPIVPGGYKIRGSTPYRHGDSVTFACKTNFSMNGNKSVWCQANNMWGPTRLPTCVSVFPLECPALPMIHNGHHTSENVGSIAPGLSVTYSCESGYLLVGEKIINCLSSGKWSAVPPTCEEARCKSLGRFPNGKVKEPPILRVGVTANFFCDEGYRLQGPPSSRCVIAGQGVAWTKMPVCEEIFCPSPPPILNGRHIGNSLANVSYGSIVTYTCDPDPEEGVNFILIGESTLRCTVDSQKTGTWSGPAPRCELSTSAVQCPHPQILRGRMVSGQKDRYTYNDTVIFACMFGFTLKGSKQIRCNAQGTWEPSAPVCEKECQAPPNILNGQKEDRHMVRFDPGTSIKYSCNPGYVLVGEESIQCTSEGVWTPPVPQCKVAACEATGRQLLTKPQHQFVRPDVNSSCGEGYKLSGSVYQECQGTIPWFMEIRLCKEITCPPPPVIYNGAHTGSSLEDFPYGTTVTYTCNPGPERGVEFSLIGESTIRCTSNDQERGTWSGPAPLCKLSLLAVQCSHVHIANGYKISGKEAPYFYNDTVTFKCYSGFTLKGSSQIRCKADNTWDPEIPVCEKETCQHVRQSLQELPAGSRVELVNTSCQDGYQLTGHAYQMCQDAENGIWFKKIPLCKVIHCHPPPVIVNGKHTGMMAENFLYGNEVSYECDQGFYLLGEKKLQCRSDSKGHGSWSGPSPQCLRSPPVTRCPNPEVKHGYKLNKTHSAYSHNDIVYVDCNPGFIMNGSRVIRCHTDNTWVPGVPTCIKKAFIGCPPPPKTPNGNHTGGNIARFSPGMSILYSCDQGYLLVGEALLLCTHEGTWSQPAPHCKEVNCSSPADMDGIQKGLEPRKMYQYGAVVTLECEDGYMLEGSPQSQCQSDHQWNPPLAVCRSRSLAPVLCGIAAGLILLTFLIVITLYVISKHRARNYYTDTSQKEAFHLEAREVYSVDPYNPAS
Put plainly: Raji B cell binding, flow cytometry. On the procedure: Ab15 binding to cell-surface human and cyno CD21 was determined using human Raji B cells (ATCC, Manassas, VA) and CHO cells over expressing cyno CD21. Cells expressing cyno CD21 were generated by transfecting CHO cells with a mammalian expression construct encoding full-length cyno CD21. Stable cell clones were selected on hygromycin-B, and their expression of cyno CD21 confirmed by flow cytometry.
For the Ab15 binding experiment, cells were dissociated with cell dissociation buffer (Sigma) and blocked on ice with PBS+3% bovine serum (BS)+human Fc blocker. Cells were stained on ice for 1 hr with 3-fold serially diluted Ab15 (starting from 50 nM), then washed with cold PBS. Secondary antibody (anti-human IgG-PE, 1:500 dilution, Invitrogen, cat. #H10104) was added on ice for 1 hr. Cells were washed with and resuspended in PBS, and analyzed for Ab15 binding on a BD Fortessa instrument.
(Flow cytometry measures light scatter and fluorescence of single cells or particles in a stream.)

The target in assay [3] is T1, human CD21 on Raji B cells or primary B …. In words: flow cytometry, competition with biotinylated human C3d on Raji B cells. On the procedure: To measure neutralization of C3d binding to cell-surface CD21 by flow cytometry, human Raji cells and CHO-cyno CD21 cells were used. Cells were dissociated with cell dissociation buffer (Sigma) and blocked on ice with PBS+3% bovine serum albumin (BSA)+human Fc blocker. In a 96-well plate, […] were incubated for 0.5 hr on ice with 3-fold serially diluted Ab15 (starting from 100 nM), then with 4.5 ug/ml biotinylated human C3d. SA-BV451 conjugate (BD Bioscience, cat. #563529) was then added at 0.5 ug/ml for 1 hr on ice. Cells were washed again with cold PBS, resuspended in PBS and analyzed for human C3d binding on a BD Fortessa™.

A word on the Kd: it is the equilibrium constant for the complex coming apart. A low value points to a tighter complex. As a reminder, the EC50 is the midpoint of the concentration-response curve. A higher EC50 goes with lower potency in that assay. The term IC50 denotes the midpoint of a concentration-inhibition curve. A lower IC50 goes with greater potency.

B1: Ab15 (antibody, human IgG1, kappa, V domains shown)
VH: QVQLVQSGAEVKKPGSSVKVSCKASGGTFSSYAISWVRQAPGQGLEWMGRIIPILGIANYAQKFQGRVTITADKSTSTAYMELSSLRSEDTAVYYCAREDDSSGYYQDWGQGTLVTVSS
VL: EIVMTQSPATLSLSPGESATLSCRAGQSINSHLAWYQQKPGQSPSLLIYDASTRATGVPARFSGSGFGTEFTLTISSLQSEDFAVYFCQQYEYWYTFGQGTKLEIKR
notes: Tb-labeled in the HTRF assay; also called 36C01; SC38-36C01 (IgG1 version)
B1 yielded a Kd in assay [1] of 5.77 nM. A half-maximal effect in assay [2] (EC50) was put at 1.38 nM. Besides, the IC50 in assay [3] amounted to 1.17 nM.
